In assay [1] the target is T1, BODIPY-labeled staphylocoagulase SC (S7C)(1-325) (Staphylococcus aureus, UniProt P17855 27-351).
T1 sequence: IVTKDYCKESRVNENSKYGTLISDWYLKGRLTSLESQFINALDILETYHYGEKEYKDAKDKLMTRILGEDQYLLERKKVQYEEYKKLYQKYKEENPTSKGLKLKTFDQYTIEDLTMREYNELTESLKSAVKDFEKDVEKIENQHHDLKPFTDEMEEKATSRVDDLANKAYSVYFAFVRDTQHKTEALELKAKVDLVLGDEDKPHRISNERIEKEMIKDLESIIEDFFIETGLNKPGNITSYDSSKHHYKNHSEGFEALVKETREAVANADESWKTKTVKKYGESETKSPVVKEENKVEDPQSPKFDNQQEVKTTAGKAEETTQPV

Assay [2] addresses T2, staphylocoagulase SC(1-246), unlabeled (Staphylococcus aureus, UniProt P17855 27-272).
T2 sequence: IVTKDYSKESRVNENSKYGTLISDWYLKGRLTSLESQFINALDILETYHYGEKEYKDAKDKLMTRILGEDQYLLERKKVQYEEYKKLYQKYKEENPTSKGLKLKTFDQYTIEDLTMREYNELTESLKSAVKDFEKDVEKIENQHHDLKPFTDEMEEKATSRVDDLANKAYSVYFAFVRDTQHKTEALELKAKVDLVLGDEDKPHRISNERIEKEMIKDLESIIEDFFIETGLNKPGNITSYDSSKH

The target of assay [3] is Mutated Peptide Ala 8 (Staphylococcus aureus). In words: solid phase competitive inhibition ELISA; peptide in solution against coated …. In general terms: An ELISA detects its analyte on a solid surface through an enzyme-linked reagent.
The target in assay [4] is Mutated Peptide Ala 9 (Staphylococcus aureus). Described as above.
Assay [5] addresses Mutated Peptide Ala 8 & 9 (Staphylococcus aureus). The description is as above.
For assay [6], the target named is T1, BODIPY-labeled staphylocoagulase SC …. Kind of assay: BODIPY fluorescence increase on titration, quadratic binding equation.

Where two headings read alike, the source gives them in different places.

B1: GMA-2105 murine monoclonal antibody (antibody, V domains shown)
VH: EVKLEESGGGLVQPGGSMKLSCAASGFTFSDAWMDWVRQSPEKGLEWVAEIRTKANNHATYYAESVKGRFTISRDDSKSSVYLQMNSLRAEDTGIYYCTNVYYGNNDVKDYWGQGTSVTVSP
VL: DIVMTQSQKFMSTSVGDRVSVTCKASQNVDIYVAWYQQKPGQSPKALIYSASYRFSGVPDRFTGSGSGTDFTLSISNVQSEDLAEYFCQQYNNYPYTFGGGTKLEIKR
notes: also called anti-SC(1-10) mAb; clone 2A1.5H4.B7
In general, Kd refers to the equilibrium constant for the complex coming apart. On to B1, for which the Kd worked out at 0.99 nM in assay [1], 4 nM in assay [2] and 2 nM in assay [6]. Further, in assay [1], the stoichiometry is 2 mol staphylocoagulase/mol GMA-2105. For the same molecule, the binding result in assay [3], in assay [4] and in assay [5] was “binds” each time. Also, the “stoichiometry (n)” value in assay [6] was 1.6 mol BODIPY-SC/mol GMA-2105.

B2: Chimeric GMA-2105 (antibody, V domains shown)
VH: B1 VH
VL: B1 VL
Take B2: in assay [1], the affinity, expressed as Kd, was 0.79 nM and the stoichiometry was 2 mol staphylocoagulase/mol chimeric antibody.

(Values after patent publication US10906989 (dated 2021).)
